Data reported in US20240116985A1 (published 2024).
Blank lines part the entries; values can stand above or below the binder they belong to. Starred links: 1 amine or outer side, 2 acyl side, 3 side chain; linkers in the order of their positions; H or OH if unused. Positions of bridges follow the written chain, without caps; N, C: chain ends. Non-standard residues stand in square brackets, D forms with d. Primed or numbered codes have the meaning given here. No end group written: not given here. PyrS2″ = (S)-3-amino-1-((pent-4-en-1-yloxy)carbonyl)pyrrolidine-3-carboxylic acid (stapling residue), C=CCCCOC(=O)N1CC[C@@](N[*:1])(C(=O)[*:2])C1; B5(4) = 2,2-bis(4-pentenyl)glycine = 2-amino-2-(pent-4-en-1-yl)hept-6-enoic acid (stitching residue), C=CCCCC(CCCC=C)(N[*:1])C(=O)[*:2]; B5(5) = 2,2-bis(4-pentenyl)glycine, 2-amino-2-(pent-4-en-1-yl)hept-6-enoic acid (stitching residue), C=CCCCC(CCCC=C)(N[*:1])C(=O)[*:2]; B5(3) = 2,2-bis(4-pentenyl)glycine (stitching residue), C=CCCCC(CCCC=C)(N[*:1])C(=O)[*:2]; Phe(2-CF3) = N[C@@H](Cc1ccccc1C(F)(F)F)C(=O)O; Bta = N[C@@H](Cc1csc2ccccc12)C(=O)O; αAllylPro = C=CC[C@@]1(C(=O)O)CCCN1; tBuAla = CC(C)(C)C[C@H](N)C(=O)O; 3Thi = N[C@@H](Cc1ccsc1)C(=O)O

Experiments:
Assay in all cases: cell-based or functional assay
[1] = biological target: T1, B-cat-Halo (Nano-BRET construct expressed in HEK293 cells) (UniProt P35222 1-781)
T1 sequence (looked up): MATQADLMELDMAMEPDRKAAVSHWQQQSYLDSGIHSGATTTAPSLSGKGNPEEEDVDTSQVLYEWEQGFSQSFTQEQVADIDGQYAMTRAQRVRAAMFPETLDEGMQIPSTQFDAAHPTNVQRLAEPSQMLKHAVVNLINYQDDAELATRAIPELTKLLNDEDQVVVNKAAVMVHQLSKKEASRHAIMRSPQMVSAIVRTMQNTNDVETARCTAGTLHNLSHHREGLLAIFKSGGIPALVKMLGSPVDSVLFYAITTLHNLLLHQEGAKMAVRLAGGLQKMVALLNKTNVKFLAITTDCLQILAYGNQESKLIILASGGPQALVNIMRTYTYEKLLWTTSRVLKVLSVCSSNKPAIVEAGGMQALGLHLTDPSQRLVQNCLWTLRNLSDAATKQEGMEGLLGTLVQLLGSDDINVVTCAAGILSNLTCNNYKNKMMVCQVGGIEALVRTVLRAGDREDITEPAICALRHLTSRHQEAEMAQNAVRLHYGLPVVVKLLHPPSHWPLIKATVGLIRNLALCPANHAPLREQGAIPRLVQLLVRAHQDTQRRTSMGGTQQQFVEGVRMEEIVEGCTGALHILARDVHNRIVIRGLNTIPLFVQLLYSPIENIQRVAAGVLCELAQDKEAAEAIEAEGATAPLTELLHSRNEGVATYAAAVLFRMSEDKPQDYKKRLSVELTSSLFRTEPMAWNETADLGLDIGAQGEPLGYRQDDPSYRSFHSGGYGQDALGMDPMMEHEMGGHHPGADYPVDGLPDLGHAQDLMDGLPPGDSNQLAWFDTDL

[2] = biological target: T2, beta-catenin in DLD1 TCF/LEF luciferase reporter cells (UniProt P35222 1-781)
T2 sequence (looked up): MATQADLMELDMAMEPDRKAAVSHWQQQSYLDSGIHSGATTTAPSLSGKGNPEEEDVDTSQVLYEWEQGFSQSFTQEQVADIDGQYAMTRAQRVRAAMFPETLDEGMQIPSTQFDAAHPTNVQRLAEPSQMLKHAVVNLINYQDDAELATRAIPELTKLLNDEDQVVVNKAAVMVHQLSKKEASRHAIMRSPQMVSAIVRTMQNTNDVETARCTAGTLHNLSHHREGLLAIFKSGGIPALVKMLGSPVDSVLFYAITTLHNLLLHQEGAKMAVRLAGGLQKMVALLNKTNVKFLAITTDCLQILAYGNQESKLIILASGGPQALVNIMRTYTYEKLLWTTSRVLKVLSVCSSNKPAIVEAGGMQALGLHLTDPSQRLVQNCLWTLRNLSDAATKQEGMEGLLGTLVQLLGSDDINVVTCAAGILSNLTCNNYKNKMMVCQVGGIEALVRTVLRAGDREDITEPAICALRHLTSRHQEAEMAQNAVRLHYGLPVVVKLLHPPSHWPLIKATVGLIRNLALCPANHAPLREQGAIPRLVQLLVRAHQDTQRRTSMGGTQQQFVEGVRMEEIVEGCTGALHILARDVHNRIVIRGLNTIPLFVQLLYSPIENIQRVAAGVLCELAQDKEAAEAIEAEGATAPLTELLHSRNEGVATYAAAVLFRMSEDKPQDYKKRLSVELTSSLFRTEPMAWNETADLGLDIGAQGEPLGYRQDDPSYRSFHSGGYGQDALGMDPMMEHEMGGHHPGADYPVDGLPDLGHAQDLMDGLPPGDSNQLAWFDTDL

[3] = biological target: T3, B-cat-Halo (UniProt P35222 1-781)
T3 sequence (looked up): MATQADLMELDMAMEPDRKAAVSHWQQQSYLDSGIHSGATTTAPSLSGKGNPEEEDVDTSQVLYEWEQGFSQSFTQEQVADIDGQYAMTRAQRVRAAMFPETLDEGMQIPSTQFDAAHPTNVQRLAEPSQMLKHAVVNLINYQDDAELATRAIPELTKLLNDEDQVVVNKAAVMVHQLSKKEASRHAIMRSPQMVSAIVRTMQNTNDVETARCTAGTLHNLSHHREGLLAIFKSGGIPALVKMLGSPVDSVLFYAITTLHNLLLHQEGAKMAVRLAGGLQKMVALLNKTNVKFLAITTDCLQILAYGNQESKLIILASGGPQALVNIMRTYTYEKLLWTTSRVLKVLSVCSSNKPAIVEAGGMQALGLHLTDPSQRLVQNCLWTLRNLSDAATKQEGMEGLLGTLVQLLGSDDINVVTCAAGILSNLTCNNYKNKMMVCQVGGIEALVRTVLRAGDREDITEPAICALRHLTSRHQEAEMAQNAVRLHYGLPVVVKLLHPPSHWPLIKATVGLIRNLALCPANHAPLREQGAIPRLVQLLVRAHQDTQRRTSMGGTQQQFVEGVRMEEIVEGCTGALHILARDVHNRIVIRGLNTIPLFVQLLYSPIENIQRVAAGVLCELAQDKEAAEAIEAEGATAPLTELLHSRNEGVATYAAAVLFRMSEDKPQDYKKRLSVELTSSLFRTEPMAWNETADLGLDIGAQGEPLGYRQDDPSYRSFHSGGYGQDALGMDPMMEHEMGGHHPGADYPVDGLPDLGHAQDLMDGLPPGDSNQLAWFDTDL

[4] = biological target: T4, B-cat-Halo (UniProt P35222 1-781); remark: listed apart in the source
T4 sequence (looked up): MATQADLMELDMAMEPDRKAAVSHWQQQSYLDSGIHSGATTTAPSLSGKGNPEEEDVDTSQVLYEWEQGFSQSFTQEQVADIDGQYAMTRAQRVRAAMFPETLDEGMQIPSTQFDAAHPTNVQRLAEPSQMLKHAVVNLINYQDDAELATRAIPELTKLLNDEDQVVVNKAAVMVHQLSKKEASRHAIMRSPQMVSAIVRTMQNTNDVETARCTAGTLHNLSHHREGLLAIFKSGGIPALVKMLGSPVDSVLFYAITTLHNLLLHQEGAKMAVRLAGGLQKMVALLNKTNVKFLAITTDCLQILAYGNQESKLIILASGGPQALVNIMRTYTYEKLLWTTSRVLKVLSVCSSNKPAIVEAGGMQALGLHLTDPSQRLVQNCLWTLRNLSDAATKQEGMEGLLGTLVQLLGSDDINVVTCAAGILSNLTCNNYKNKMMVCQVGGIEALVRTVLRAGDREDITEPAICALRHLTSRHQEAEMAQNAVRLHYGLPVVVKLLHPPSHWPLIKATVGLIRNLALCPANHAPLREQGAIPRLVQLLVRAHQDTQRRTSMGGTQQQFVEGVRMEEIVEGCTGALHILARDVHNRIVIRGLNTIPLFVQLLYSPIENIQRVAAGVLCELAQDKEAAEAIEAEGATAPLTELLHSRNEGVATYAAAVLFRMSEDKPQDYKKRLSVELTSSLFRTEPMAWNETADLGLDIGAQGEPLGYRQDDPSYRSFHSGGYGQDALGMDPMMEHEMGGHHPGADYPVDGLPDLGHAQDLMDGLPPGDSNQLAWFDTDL

NanoBRET IC50 [1]: 8.9 µM
B1: I-873 (peptide)
peptide: Ac-[αAllylPro]D[tBuAla][B5(3)]DDAAFN[PyrS2″][3Thi][Bta]QAA
modifications: staple 1-4, 4-11; not fully specified; printed as Ac-PL3-Asp-Npg-B5-Asp-Asp-Ala-Ala-Phe-Asn-PyrS2-3Thi-BztA-Gln-Ala-Ala

DLD1 4% Abs IC50 [2]: 2.1 µM
NanoBRET Abs IC50 [3]: 4.2 µM
B2: I-1319 (peptide)
peptide: Ac-[αAllylPro]D[tBuAla][B5(4)]DDAAFF[PyrS2″][Phe(2-CF3)][Bta]Q-NH2
modifications: staple 1-4, 4-11

NanoBRET IC50 [4]: 7.5 µM
B3: I-686 (peptide)
peptide: Ac-[αAllylPro]D[tBuAla][B5(5)]DDAAFN[PyrS2″][3Thi][Bta]Q-NH2
modifications: staple 1-4, 4-11
